Assay results taken from doi:10.1101/517771.

Molecular target: FLAG-BLM (Bloom's Syndrome helicase) (human) (UniProt P54132)
Sequence of UniProt P54132 (P54132 whole entry): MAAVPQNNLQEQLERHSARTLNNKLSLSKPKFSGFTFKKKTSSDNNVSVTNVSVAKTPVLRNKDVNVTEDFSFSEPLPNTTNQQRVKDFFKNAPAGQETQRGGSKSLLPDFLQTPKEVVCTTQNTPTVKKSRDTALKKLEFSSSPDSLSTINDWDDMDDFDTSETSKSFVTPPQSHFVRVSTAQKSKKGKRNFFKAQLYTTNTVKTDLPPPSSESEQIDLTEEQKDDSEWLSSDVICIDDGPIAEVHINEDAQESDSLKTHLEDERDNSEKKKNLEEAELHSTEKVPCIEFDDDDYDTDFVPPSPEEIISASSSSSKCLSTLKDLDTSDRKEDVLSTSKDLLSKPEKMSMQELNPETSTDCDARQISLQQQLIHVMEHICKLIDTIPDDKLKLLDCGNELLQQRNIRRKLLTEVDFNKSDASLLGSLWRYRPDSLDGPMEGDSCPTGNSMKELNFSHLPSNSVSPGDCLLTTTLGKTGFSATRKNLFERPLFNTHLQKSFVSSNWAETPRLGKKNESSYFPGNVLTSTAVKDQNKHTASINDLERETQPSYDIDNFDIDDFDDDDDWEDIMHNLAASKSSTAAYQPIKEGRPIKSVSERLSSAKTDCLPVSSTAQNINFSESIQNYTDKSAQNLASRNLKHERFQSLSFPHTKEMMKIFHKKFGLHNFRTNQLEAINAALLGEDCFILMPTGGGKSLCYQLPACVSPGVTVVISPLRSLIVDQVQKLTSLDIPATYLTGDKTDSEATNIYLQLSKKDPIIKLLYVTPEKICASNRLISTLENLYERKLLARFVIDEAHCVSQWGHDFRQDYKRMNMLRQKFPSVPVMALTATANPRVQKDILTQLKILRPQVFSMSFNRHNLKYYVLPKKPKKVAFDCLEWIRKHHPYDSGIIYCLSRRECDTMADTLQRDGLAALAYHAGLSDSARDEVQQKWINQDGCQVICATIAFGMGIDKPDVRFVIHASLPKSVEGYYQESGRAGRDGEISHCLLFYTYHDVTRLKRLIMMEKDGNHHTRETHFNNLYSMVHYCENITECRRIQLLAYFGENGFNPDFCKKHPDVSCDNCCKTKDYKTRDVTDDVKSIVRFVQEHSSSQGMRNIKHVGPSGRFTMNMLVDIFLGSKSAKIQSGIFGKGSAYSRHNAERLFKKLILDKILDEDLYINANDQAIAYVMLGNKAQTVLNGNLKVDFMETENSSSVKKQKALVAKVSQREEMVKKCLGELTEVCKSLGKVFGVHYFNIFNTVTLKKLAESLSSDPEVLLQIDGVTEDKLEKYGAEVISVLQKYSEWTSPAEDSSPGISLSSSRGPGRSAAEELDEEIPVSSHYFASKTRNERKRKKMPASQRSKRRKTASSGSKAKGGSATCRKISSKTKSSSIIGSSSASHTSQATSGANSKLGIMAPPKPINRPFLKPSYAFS

fold decrease in BLM/EXO1 resection processivity after addition of pRPA: 3 fold | fraction of BLM/DNA2 molecules that stopped resecting DNA upon addition of pRPA: 30%
Substance: phosphorylated human RPA (pRPA) (from UniProt P27694 1-616; P15927 1-270) (complex)
